# Laboratory results published in US20150274802A1 (INDIANA UNIVERSITY RESEARCH AND TECHNOLOGY, published 2015).
# Ends that are not written are not given here.
# B1: #57: Gly^B2-PEG20K-Gly^B2 #11 dimer (ligand)
# chain: GPEHLCGAHLVDALYLVCGDRGFYGYGSSSRRAPQTGIVDECCHRSCDLRRLENYCN
# modifications: not fully specified (N-terminus); ends and bridges not checked; also: dimer: N-terminal amines of two chains joined by bifunctional 20K PEG linker
# B2: IGF1 (Y^B16L^B17) (ligand)
# chain 1: GIVDECCFRSCDLRRLEMYCA
# chain 2: GPETLCGAELVDALYLVCGDRGFYFNKPT
# notes: also called IGF analog IGF1 (Y^B16L^B17)
# Assays:
# human insulin receptor [1] = target: T1, human insulin receptor (human, UniProt P06213 28-1382); assay: cell-based or functional assay
# human IGF-1 receptor [2] = target: T2, human IGF-1 receptor (human, UniProt P08069 31-1367); assay: cell-based or functional assay
# human IGF-1 receptor [3] = target: T2, human IGF-1 receptor; assay: cell-based or functional assay; remark: listed apart in the source
# human insulin receptor [4] = target: T1, human insulin receptor; assay: competition SPA, [125I]insulin
Binder,potency in vitro against monomer #39 (human insulin receptor [1]),"% Insulin Activity (in vitro, assay not named) (human IGF-1 receptor [2])","Phosphorylation (EC50), % IGF-1 R (human IGF-1 receptor [3])",IC50 (human insulin receptor [4])
B1,~5 fold,2.6%,2.6%,–
B2,–,–,–,0.51 nM
